These results are taken from publication PMC7970865 (Scientific Reports, 2021).

For assay [1], the target named is T1, NANPx6 peptide (Plasmodium falciparum CSP repeat, …).
T1 construct: also called NANP6; short repeat peptide
Description: ELISA. The settings on record: both partners purified. For orientation: ELISA stands for enzyme-linked immunosorbent assay.

The target in assay [2] is T2, NPDP19 peptide (Plasmodium falciparum CSP junction, …).
T2 construct: also called peptide NPDP-19
T2 chain: KQPADGNPDPNANPNVDPN
Description: ELISA. The settings on record: both partners purified.

The target in assay [3] is T3, P. falciparum CSP on transgenic P. berghei sporozoites (Plasmodium falciparum, gene strain not …, UniProt Q7K740).
T3 construct: also called transgenic P. berghei sporozoites carrying the P. falciparum CSP gene; transgenic P. berghei-falciparum sporozoites
Description: ELISA. The settings on record: one partner purified.

In assay [4] the target is P. falciparum sporozoite CSP (Plasmodium falciparum NF54, UniProt P19597). Description: cell-based or functional assay.
Assay [5] addresses T4, biotinylated NANPx6 (Plasmodium falciparum CSP repeat, …).
T4 construct: also called NANPx6 peptide; NANPx6 target antigen
The assay is described as follows: BLI; Octet RED96; biotinylated FL-CSP or biotinylated NANPx6 on streptavidin biosensors, Fab in solution, kinetics buffer; global fit to 1:1 Langmuir model. The settings on record: both partners purified. (In general: Biolayer interferometry detects binding as a change in optical thickness at a sensor tip.)

The target of assay [6] is T5, peptide 21 (Plasmodium falciparum CSP junction, …).
T5 construct: also called NP-DPNA-NPNV-DPNA-N
T5 chain: NPDPNANPNVDPNAN
The assay is described as follows: ELISA. The following applies: both partners purified.

The Kd is the constant that tells how readily two partners part at equilibrium. Lower therefore signals higher affinity. The term koff denotes the first-order rate constant of dissociation. A lower koff goes with slow dissociation. Broadly, the kon is the second-order rate constant of association.

B1: mAb 663 (antibody, V domains shown)
VH: EVQLLESGGGLEQPGGSLRLSCVVSGFTFSNYAFNWVRQAPGKGLEWVAIIYRSGSRMYHADSVKGRFTISRDDSKNTLFLQMNNLRAEDTAVYYCTTLLIYESDVGVDFWGQGTLVTVSS
VL: DIVMTQSPLSLPVSPGEPASISCRSTQSLIFGEHNYLDWYLQKPGQSPQLLIYLASNRASGVPDRFSGSGSGTYFTLKISRVEAEDFGVYYCVQTVQVPYTFGQGTKLEIK
Take B1: in assay [1], the “ng/ml mAb needed for OD = 1” value is under 10 ng/mL. The binding result in assay [2] and in assay [3] was “binds” each time. In assay [4], this molecule yielded an other of about 100%.

B2: Fab 663 (Fab, V domains shown)
VH: EVQLLESGGGLEQPGGSLRLSCVVSGFTFSNYAFNWVRQAPGKGLEWVAIIYRSGSRMYHADSVKGRFTISRDDSKNTLFLQMNNLRAEDTAVYYCTTLLIYESDVGVDFWGQGTLVTVSS
VL: DIVMTQSPLSLPVSPGEPASISCRSTQSLIFGEHNYLDWYLQKPGQSPQLLIYLASNRASGVPDRFSGSGSGTYFTLKISRVEAEDFGVYYCVQTVQVPYTFGQGTKLEIK
Take B2: in assay [5], the Kd is 138 nM, the koff is 0.056 s⁻¹ and the kon was determined as 400000 M⁻¹ s⁻¹.

B3: mAb CIS43 (antibody, V domains shown)
VH: QVQLVQSGAEVKKPGASVKVSCKASGYTFTSYAIHWVRQAPGQRLEWMGWIKAGNGNTRYSQKFQDRVTITRDTSTTTAYMELSSLRSEDTAVYYCALLTVLTPDDAFDIWGQGTMVTVSS
VL: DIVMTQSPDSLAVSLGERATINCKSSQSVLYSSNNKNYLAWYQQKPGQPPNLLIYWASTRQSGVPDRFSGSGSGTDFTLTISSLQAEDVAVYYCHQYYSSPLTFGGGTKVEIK
For the molecule B3, the “ng/ml mAb needed for OD = 1” value in assay [1] is under 10 ng/mL. The binding result in assay [6] and in assay [2] was “binds” in each case. In assay [4], this molecule gave an other of about 100%.

B4: Fab CIS43 (Fab, V domains shown)
VH: QVQLVQSGAEVKKPGASVKVSCKASGYTFTSYAIHWVRQAPGQRLEWMGWIKAGNGNTRYSQKFQDRVTITRDTSTTTAYMELSSLRSEDTAVYYCALLTVLTPDDAFDIWGQGTMVTVSS
VL: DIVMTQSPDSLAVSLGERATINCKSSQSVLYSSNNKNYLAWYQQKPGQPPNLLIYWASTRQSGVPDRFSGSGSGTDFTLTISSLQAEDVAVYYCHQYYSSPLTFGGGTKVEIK
B4: in assay [5], the Kd worked out at 41 nM, the koff stood at 0.0017 s⁻¹ and the kon was 40000 M⁻¹ s⁻¹.

B5: mAb 311 (antibody, V domains shown)
VH: QVQLVESGGGVVPPGRSLRLSCATSGFTFSNYGMHWVRQAPGKGLEWVAIIWYDGSRNFYAASVEGRFTISRDNSKNTLYLQMNSLRVEDTAVYYCARAAYYDTSGYGDYWGQGTLVTVSS
VL: QSVLTQPPSVSGAPGQTVTISCTGGSSNIGAGYDVHWYQQLPGTAPKLLIYGNINRPSGVPDRFSGSKSGTSASLAITGLQAEDEADYYCQSYDRRLSGSWVFGGGTKLTVL
Regarding B5, the “ng/ml mAb needed for OD = 1” value in assay [1] was under 10 ng/mL. Moreover, the binding result in assay [2] and in assay [3] was “binds” throughout. The other in assay [4] is about 100%.

B6: Fab 311 (Fab, V domains shown)
VH: QVQLVESGGGVVPPGRSLRLSCATSGFTFSNYGMHWVRQAPGKGLEWVAIIWYDGSRNFYAASVEGRFTISRDNSKNTLYLQMNSLRVEDTAVYYCARAAYYDTSGYGDYWGQGTLVTVSS
VL: QSVLTQPPSVSGAPGQTVTISCTGGSSNIGAGYDVHWYQQLPGTAPKLLIYGNINRPSGVPDRFSGSKSGTSASLAITGLQAEDEADYYCQSYDRRLSGSWVFGGGTKLTVL
In assay [5], B6 gave a Kd of 7 nM, a koff of 0.0002 s⁻¹ and a kon of 27000 M⁻¹ s⁻¹.

B7: mAb MGG4 (antibody, V domains shown)
VH: QVQLVESGGGVVQPGRSLRLSCAASGFRFSDYGMHWVRQAPGKGLEWVALIWYDGSNESYLDSVKGRFTISRDNSKNTLYLQMNNLRTEDTAVYYCAKLLVGITTDVFDVWGQGTVVTVSS
VL: DIVMTQSPDSLAVSLGERATINCRSSQSVLSSSNNKNYLAWYQHKPRQPPKLLIYWASTRESGVPDRFSGSGSGTDFTLTISSLQAEDVAVYYCQQYYTASPFFGGGTKVEIK
In the case of B7, the “ng/ml mAb needed for OD = 1” value in assay [1] is under 10 ng/mL. For the same molecule, the binding result in assay [2] and in assay [3] was “binds” in each case. Moreover, the other in assay [4] is about 100%.

B8: Fab MGG4 (Fab, V domains shown)
VH: QVQLVESGGGVVQPGRSLRLSCAASGFRFSDYGMHWVRQAPGKGLEWVALIWYDGSNESYLDSVKGRFTISRDNSKNTLYLQMNNLRTEDTAVYYCAKLLVGITTDVFDVWGQGTVVTVSS
VL: DIVMTQSPDSLAVSLGERATINCRSSQSVLSSSNNKNYLAWYQHKPRQPPKLLIYWASTRESGVPDRFSGSGSGTDFTLTISSLQAEDVAVYYCQQYYTASPFFGGGTKVEIK
notes: also called MGG4 Fab
With B8, in assay [5], binding was characterised by a dissociation constant (Kd) of 51 nM, the koff was determined as 0.0045 s⁻¹ and the kon came to 90000 M⁻¹ s⁻¹.

B9: mAb 317 (antibody, V domains shown)
VH: QMQLVESGGGVVQPGRSLRLSCTASGFTFSTYAMHWVRQSPGQGLQWVAVISYHSTNKYYEDSVRGRFTISRDNSKNTLYLQMNSLRAEDTAVYYCARDGYSSSFFDFWGQGTLVTVSS
VL: DIQMTQSPSTLSASVGDRVAITCRASQSISRWLAWYQQQPGKAPKLLMSGASVLESGVPSRFSGSGSGTEFTLTISSLQPDDFATYYCQHYNSYFVTFGQGTKVEIK
For the molecule B9, in assay [1], the “ng/ml mAb needed for OD = 1” value was under 10 ng/mL.

B10: Fab 317 (Fab, V domains shown)
VH: QMQLVESGGGVVQPGRSLRLSCTASGFTFSTYAMHWVRQSPGQGLQWVAVISYHSTNKYYEDSVRGRFTISRDNSKNTLYLQMNSLRAEDTAVYYCARDGYSSSFFDFWGQGTLVTVSS
VL: DIQMTQSPSTLSASVGDRVAITCRASQSISRWLAWYQQQPGKAPKLLMSGASVLESGVPSRFSGSGSGTEFTLTISSLQPDDFATYYCQHYNSYFVTFGQGTKVEIK
As for B10, in assay [5], the Kd stood at 0.003 nM.
